This is an account of results in US20250011422A1 (UNIVERSITY OF FLORIDA RESEARCH FOUNDATION, published 2025).

One may read the koff as a measure of how fast the partners let go of each other. Broadly, the kon is a measure of how fast the partners come together. Low values mean slower complex formation, high ones faster complex formation. As a reminder, the EC50 (read off the curve) is the concentration that produces a half-maximal response.

Assay [1] addresses T1, human Siglec-6 on the cell surface (U937, MEC1-002, MEC1-hS6, primary CLL cells) (human, UniProt O43699 27-453).
T1 construct: whole, on cells; Endogenous on U937, MEC1-002 and CLL cells; stably transfected in MEC1-hS6
Put plainly: flow cytometry titration on MEC1-hS6 cells, apparent Kd; scFv-Fc format, RC-1 clone. A general note: In flow cytometry, cells or beads pass a laser one at a time.
Experimental: (§1) To determine whether T-biAb format affected the affinity to Siglec-6 or CD3 on the cell surface, T-biAbs were titrated and used to stain cells for flow cytometry (FIG. 17a).
(§2) Flow cytometry: Fabs were used to stain cells at a concentration of 2 μg/mL, unless otherwise noted. […] Samples were analyzed on either an Accuri C6 Plus or a LSRII flow cytometer (both from BD Biosciences).

The target in assay [2] is T2, CD3 on human T cells (human, UniProt P07766 23-207).
T2 construct: whole, on cells; CD3 is a complex; also called CD3+ cells
Nature of the assay: flow cytometry titration on primary human T cells.
Experimental: as §1, §2

A further assay deals with T3, Siglec-6 VC28-235-His6 (human, UniProt O43699 28-235).
T3 construct: It was deglycosylated with PNGase F for HDX-MS; also called soluble Siglec-6 (aa 28-235-His6); Siglec-6 ectodomain fragment
Nature of the assay: SPR, T-biAb immobilised via the Fc domain, soluble Siglec-6 (aa 28-235-His6) injected. (Surface plasmon resonance follows binding to a sensor surface in real time, without labels.)

In assay [3] the target is T1, human Siglec-6 on the cell surface …. Nature of the assay: cell-based or functional assay.
Assay [4] concerns the target T2, CD3 on human T cells. Put plainly: flow cytometry titration on primary human T cells, Alexa Fluor 647 anti-human Fc secondary antibody, percent biAb+ cells.
Experimental: as §1, §2
Assay [5] has as its target T1, human Siglec-6 on the cell surface …. Nature of the assay: cell-based or functional assay. This is another data set of the same source.

T1 sequence (O43699 27-453): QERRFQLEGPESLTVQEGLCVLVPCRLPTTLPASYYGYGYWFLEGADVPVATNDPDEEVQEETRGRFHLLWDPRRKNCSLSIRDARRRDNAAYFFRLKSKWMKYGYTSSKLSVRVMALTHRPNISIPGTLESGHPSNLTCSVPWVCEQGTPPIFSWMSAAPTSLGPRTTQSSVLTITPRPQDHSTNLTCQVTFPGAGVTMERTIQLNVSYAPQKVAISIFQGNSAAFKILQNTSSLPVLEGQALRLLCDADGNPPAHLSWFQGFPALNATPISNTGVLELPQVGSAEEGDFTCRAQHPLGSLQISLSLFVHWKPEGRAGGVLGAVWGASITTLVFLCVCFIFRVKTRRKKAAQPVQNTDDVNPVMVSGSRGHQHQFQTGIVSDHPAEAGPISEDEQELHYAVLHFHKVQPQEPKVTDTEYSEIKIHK
T3 sequence (O43699 other isoform, or with tags, fused parts or gaps limits assumed): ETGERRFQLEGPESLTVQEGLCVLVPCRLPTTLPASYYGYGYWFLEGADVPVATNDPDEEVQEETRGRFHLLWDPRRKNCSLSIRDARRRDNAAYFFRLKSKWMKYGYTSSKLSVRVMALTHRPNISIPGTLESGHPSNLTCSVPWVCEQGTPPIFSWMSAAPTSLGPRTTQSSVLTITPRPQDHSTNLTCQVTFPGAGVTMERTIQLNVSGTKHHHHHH
T2 sequence (P07766 23-207): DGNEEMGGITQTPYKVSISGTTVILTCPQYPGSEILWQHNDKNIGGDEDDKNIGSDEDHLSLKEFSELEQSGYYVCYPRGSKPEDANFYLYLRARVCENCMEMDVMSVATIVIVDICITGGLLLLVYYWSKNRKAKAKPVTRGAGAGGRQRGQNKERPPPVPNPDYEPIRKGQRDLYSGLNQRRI
Experimental for Siglec-6 VC28-235-His6: Fab kinetics were determined by capturing Siglec-6-Fc (5-10 μg/mL) in HBS-EP+ buffer (Cytiva) and injecting titrated. […] Biacore evaluation software was used to calculate kₒₙ, koff, and Kd.

B1: RC-1/V9 scFv-Fc (bispecific antibody)
chain 1: not shown
chain 2: EVQLVESGGGLVQPGGSLRLSCAASGYSFTGYTMNWVRQAPGKGLEWVALINPYKGVSTYNQKFKDRFTISVDKSKNTAYLQMNSLRAEDTAVYYCARSGYYGDSDWYFDVWGQGTLVTVSSGGGGSGGGGSGGGGSDIQMTQSPSSLSASVGDRVTITCRASQDIRNYLNWYQQKPGKAPKLLIYYTSRLESGVPSRFSGSGSGTDYTLTISSLQPEDFATYYCQQGNTLPWTFGQGTKVEIKEPKSSDKTHTCPPCPAPELLGGPSVFLFPPKPKDTLMISRTPEVTCVVVDVSHEDPEVKFNWYVDGVEVHNAKTKPREEQYASTYRVVSVLTVLHQDWLNGKEYKCKVSNKALPAPIEKTISKAKGQPREPQVCTLPPSRDELTKNQVSLSCAVKGFYPSDIAVEWESNGQPENNYKTTPPVLDSDGSFFLVSKLTVDKSRWQQGNVFSCSVMHEALHNHYTQKSLSLSPGA
notes: Knobs-into-holes heterodimer of the RC-1 scFv-Fc knob arm and the shared anti-CD3 V9 scFv-Fc hole arm; also called RC-1 clone in scFv-Fc format
On to B1, for which, in assay [1], the Kd was determined as 1.1 nM. Moreover, in the assay with CD3 on human T cells [2], the “fold more potent binding than the aDART-Fc” value is around 2 fold. Also, in the assay with Siglec-6 VC28-235-His6, the Kd was found to be 0.1 nM, the koff turned out to be 0.00031 s⁻¹ and the kon came to 3.05e+06 M⁻¹ s⁻¹. In assay [3], the “EC50 (read off the curve), NFAT reporter activation with MEC1-002 cells” value was around 0.1 nM. In addition, the “EC50 (read off the curve)” value with CD3 on human T cells [4] was around 0.05 nM. Besides, in assay [5], the “specific lysis of MEC1-hS6 by healthy donor T cells, EC50” value came to 0.003 nM and the “specific lysis of primary CLL cells by autologous T cells, day 11, median” value stood at 2.4%.
